This passage reports Kd results from publication doi:10.1101/2020.05.03.074682.

A word on the Kd: it is the free concentration of one partner at which half of the binding sites on the other are occupied at equilibrium, for simple one-to-one binding. A low value points to a tighter complex.

In the assay the target is biotinylated C-terminal cytosolic tail of GCS. Description: ITC. In general terms: In ITC the heat of successive injections is recorded.

In turn, “GRASP domain of GRASP55 (recombinant, used for ITC) (domain or fragment)” showed a Kd of 2000 nM.
